System: NC(=O)C1=CN([C@@H]2O[C@H](COP(=O)(O)OP(=O)(O)OC[C@H]3O[C@@H](n4cnc5c(N)ncnc54)[C@H](OP(=O)(O)O)[C@@H]3O)[C@@H](O)[C@H]2O)C=CC1
Test: purified protein
Assay type: biochemical, Scoparia dulcis
Conditions: 100 μM cytochrome c, varied NADPH; 28 °C, pH 7.5 in table footnote (methods: 25 °C, 50 mM Tris pH 7.4)

SdCPR (Scoparia dulcis), sequence (chain, as listed by the source): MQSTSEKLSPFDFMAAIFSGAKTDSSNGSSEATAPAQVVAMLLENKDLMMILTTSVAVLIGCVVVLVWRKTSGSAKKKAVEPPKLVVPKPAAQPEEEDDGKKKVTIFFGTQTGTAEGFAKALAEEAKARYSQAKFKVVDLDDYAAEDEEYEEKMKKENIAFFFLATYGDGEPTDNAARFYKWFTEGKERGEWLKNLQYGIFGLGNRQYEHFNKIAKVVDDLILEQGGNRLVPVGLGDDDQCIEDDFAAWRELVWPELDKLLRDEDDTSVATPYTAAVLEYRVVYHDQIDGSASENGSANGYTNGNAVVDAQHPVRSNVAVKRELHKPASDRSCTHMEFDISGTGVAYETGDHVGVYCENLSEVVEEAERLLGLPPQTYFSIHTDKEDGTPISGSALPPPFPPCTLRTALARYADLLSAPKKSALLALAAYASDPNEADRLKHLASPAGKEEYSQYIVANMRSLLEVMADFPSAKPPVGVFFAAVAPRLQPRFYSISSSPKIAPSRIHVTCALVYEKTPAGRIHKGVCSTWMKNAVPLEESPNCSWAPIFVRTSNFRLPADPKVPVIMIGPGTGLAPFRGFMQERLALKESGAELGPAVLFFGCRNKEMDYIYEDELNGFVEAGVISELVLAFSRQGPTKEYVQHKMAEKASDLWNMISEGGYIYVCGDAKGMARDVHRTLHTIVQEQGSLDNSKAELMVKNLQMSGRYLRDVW

SdCPR (Scoparia dulcis)
Km: 4.6 ± 0.9 µM | Vmax: 2.3 µmol/min/mg | kcat: 2.96 ± 0.13 s⁻¹ | kcat/Km: 665000 M⁻¹ s⁻¹

Source: publication PMC7052086, “Functional characterization of NADPH-cytochrome P450 reductase and cinnamic acid 4-hydroxylase encoding genes from Scoparia dulcis L” (Botanical Studies, 2020)
